Measurements reported in patent US7906477.
Square brackets hold non-standard residues; d marks the D form. Ends that are not written are not given here. Tyr(3-NO2) = N[C@@H](Cc1ccc(O)c([N+](=O)[O-])c1)C(=O)O; Abz = aminobenzoic acid; Dap = NC[C@H](N)C(=O)O

Target: human glandular kallikrein 2 (hK2), enzymatically active (human), P20151
Assay: cell-based or functional assay

time required to generate clearly detectable fluorescence on the beads: 4 to 5 h
Binder: [Tyr(3-NO2)]GKAFRL[Dap]FK(Abz)-{PEGA resin} [Y′GKAFRL-Dap-F-K′-PEGA (SEQ ID NO:53)]
